# Results reported in patent US6730828B1, “Isolated nucleic acids encoding a wheat glutathione transferase, plants transformed therewith and methods of use thereof” (Aventis Agriculture Limited, priority 1997, dated 2004).
# Legend:
# Format in all cases: biochemical
# [1] = Glutathione peroxidase activity toward cumene hydroperoxide; details: recombinant wheat GST, affinity purified; ± standard error (n = 3)
# Procedure: (§1) To assay the recombinant fusion proteins for GST activity, the E. coli were grown in the presence of IPTG and then pelleted by centrifugation. The bacteria were then lysed by sonication and the protein precipitated using 80% ammonium sulphate. After resuspension and desalting, GSTs were purified by affinity chromatography. The WIC 3 fusion protein was purified using sulphobromophthalein-S-glutathione affinity chromatography (Mozer et al. Biochem. 22, 1983, 1068-1072) while the other WIC fusion proteins were purified using glutathione-agarose (Mannervik and Guthenberg. Methods Enzymol. 77 1981, 231-235).The purified enzymes were then assayed for GST activities toward herbicides (Table 3) and GST activities toward non-herbicide substrates and glutathione peroxidase activities toward organic hydroperoxides (Table 4).
# (§2) A polyclonal antiserum was raised in a rabbit to a mixture of TaGST1-2 and TaGST1-3. When tested against crude extracts from safener-treated wheat shoots the antiserum recognised both the 25 kDa TaGST1 subunit and the 26 kDa safener-inducible TaGST2 and TaGST3 subunits. The antiserum was then used in conjunction with the antiserum raised to TaGST1-1 to immuno screen the cDNA library prepared from fenchlorazole ethyl treated wheat shoots as described in example 1. Duplicate lifts were taken from the plated out library and the first blot screened with the antiserum raised against TaGST1-2 and TaGST1-3. The second blot was screened with the antiserum raised to TaGST1-1. Five plaques were identified from the first blot which were absent from the second blot corresponding to cDNAs encoding TaGST2 or TaGST3 like polypeptides and theses clones were purified and the respective plasmids sequenced. […] The other three clones ICC. ICP and ICV had identical DNA sequences (SEQ ID No. 17) and predicted amino acid sequence (SEQ ID No. 18). GST ICJ was sub-cloned into the pET 11a vector after using PCR to introduce a Nde 1 restriction site into the translation start site, using the primer 5′ AGGTAGTTACATATGGCCGGAGGA 3′ (SEQ ID No. 19) in the amplification. following sub-cloning, the sequence of GST ICJ was re-checked to ensure no PCR induced errors had been introduced. The recombinant GST ICJ was then expressed in E. coli and purified by S-hexylglutathione affinity chromatography. The purified GST ICJ was assayed for activities as a GST (Table 3) and as a glutathione peroxidase (Table 4). […] GST ICV was finally expressed as the respective beta-galactosidase fusion protein using the Bluescript plasmid and assayed for GST activity (Table 3 ) and glutathione peroxidase activity (Table 4) in crude bacterial lysates. The specific activity of GST ICV toward these substrates was then calculated by I) subtracting the low levels of GST and GPOX activity present due the endogenous activities in the E. coli and ii) determining the proportion of protein in the lysate present as recombinant GST ICV from SDS-PAGE analysis, by densitometry analysis of polypeptides stained with Coomassie blue.
# [2] = GST activity toward crotonaldehyde; details: recombinant wheat GST, affinity purified; ± standard error
# Procedure: as §1
# GST activity toward CDNB = details: recombinant wheat GST expressed in E. coli, affinity purified
# Procedure: (§3) The purified isoenzymes were assayed for GST activity toward herbicides using the HPLC-based assays described by Edwards R. and Cole D. J. (Pesticide Biochemistry and Physiology Vol. 54, pp96-104 (1996)) and the results are presented in Table 2. […] These isoenzymes had additional activities as glutathione peroxidases able to reduce linoleic acid hydroperoxide, a major reaction product formed during membrane peroxidation in plants (Williamson and Beverly. J. Cereal Sci. 8, 1988, 155-163).
# To confirm that TaGST1 encoded a GST, it was expressed as a fusion protein with beta-galactosidase using the pBluescript plasmid in E. coli strain SOLR. TaGST1 clones were inoculated into LB liquid medium and were grown overnight at 37/C on all orbital shaker in the presence of IPTG. Bacteria were then pelleted by centrifugation, lysed by sonication and assayed for GST activity toward CDNB and analysed by SDS-PAGE and Western blotting using the anti-TaGSTI-I serum. With all six TaGST1 clones, GST activity toward CDNB could be determined in the crude extracts in the range 30-50 nkat/mg crude lysate.
# as §1
# as §2, with “The specific activity of GST ICV toward these substrates was then calculated by I) subtracting the low levels of GST and GPOX activity present due the endogenous activities in the E. coli and ii) determining the proportion of protein in the lysate present as recombinant GST ICV from SDS-PAGE analysis, by densitometry analysis of polypeptides stained with Coomassie blue.” left out
# [3] = GST activity toward herbicide metolachlor (HPLC-based assay); details: recombinant wheat GST expressed in E. coli, affinity purified; ± standard error
# Procedure: as §3, §1, §2
# [4] = GST activity toward herbicide fenoxaprop-ethyl (HPLC-based assay); details: recombinant wheat GST expressed in E. coli, affinity purified; ± standard error
# Procedure: as §3, §1, §2
# [5] = GST activity toward herbicide fluorodifen (HPLC-based assay); details: recombinant wheat GST expressed in E. coli, affinity purified; ± standard error
# Procedure: as §3, §1, §2
# [6] = GST activity toward benzyl isothiocyanate; details: recombinant wheat GST, affinity purified; ± standard error
# Procedure: as §1
Molecule,Glutathione peroxidase activity toward cumene hydroperoxide [1],GST activity toward crotonaldehyde [2] [nkat.mg^−1],GST activity toward CDNB (GST activity toward CDNB),GST activity toward metolachlor [3] [nkat.mg^−1],GST activity toward fenoxaprop-ethyl [4] [nkat.mg^−1],GST activity toward fluorodifen [5] [nkat.mg^−1],GST activity toward benzyl isothiocyanate [6] [nkat.mg^−1]
"WIC 2: recombinant type I wheat GST, SEQ ID No. 5, amino acid SEQ ID No. 6 (protein, Triticum aestivum L.) MAPAVKVYGWAVSPFVARPLLCLEEAGVEYELVSMSRAAGDHRQPDFLARNPFGQVPVLEDGDLTLFESRAIARHVLRKHKPELLGCGSPEAEAMVDVWLEVEAHQYNPAASAIVVQCIILPLLGGARDQAVVDENVAKLKKVLEVYEARLSASRYLAGDDISLADLSHFPFTRYFMETEYAPLVAELPHVNAWWEGLKARPAARKVTELMPPDLGLGKKAE",28.2 ± 1.7 absorbance change at 340 nm.mg^−1,5.5 ± 1.3,187 nkat.mg^−1,0.512 ± 0.04,0.085 ± 0.002,0.096 ± 0.002,33.3 ± 4.5
"TaGST1: recombinant wheat GST from TaGST1 cDNA (SEQ ID No. 1, amino acid SEQ ID No. 2) expressed in E. coli (protein, Triticum aestivum L.) MAGEKGLVLLDFWVSPFGQRVRIALAEKGLPYEYAEEDLMAGKSDRLLRANPVHKKIPVLLHDGRAVNESLIILQYLEEAFPDAPALLPSDPYARAQARFWADYVDKKVYDCGSRLWKLKGEPQAQARAEMLDILKTLDGALGDKPFFGGDKFGFVDAAFAPFTAWFHSYERYGEFSLPEVAPKIAAWAKRCGERESVAKSLYSPDKVYDFIGLLKKKYGIE",0.7 ± 0.1 absorbance change at 340 nm.mg^−1,3.7 ± 0.3,1970 nkat.mg^−1,0.127 ± 0.014,0,2.0 ± 0.1,11.8 ± 0
"WIC 5: recombinant type I wheat GST, SEQ ID No. 9, amino acid SEQ ID No. 10 (protein, Triticum aestivum L.) MAPIKLYGMMLSANVTRVTTLLNELGLEFDFVDVDLRTGAHKHPDFLKLNPFGQIPALQDGDEVVFESRAINRYIATKYGASLLPTPSAKLEAWLEVESHHFYPPARTLVYELVIKPMLGAPTDAAEVDKNAADLAKLLDVYEAHLAAGNKYLAGDAFPLADANHMSYLFMLTKSPKADLVASRPHVKAWWEEISARPAWAKTVASIPLPPAV",1.3 ± 0.2 absorbance change at 340 nm.mg^−1,4.5 ± 0.5,174 nkat.mg^−1,0.040 ± 0.004,0.067 ± 0.003,0.030 ± 0.002,9.4 ± 2.0
"WIC 3: recombinant type I wheat GST, SEQ ID No. 7, amino acid SEQ ID No. 8; coding sequence identical in WIC 7 and WIC 8 (protein, Triticum aestivum L.) MAPVKLYGATLSWNVTRCVAALEEAGVQYEIVPINFGTGEHKSPDHLARNPFGQVPALQDGDLYVFESRAICKYACRKNKPELLKEGDIKESAMVDVWLEVEAHQYTAALSPILFECLIHPMLGGATDQKVIDDNLVKIKNVLAVYEAHLSKSKYLAGDFLSLADLNHVSVTLCLAATPYASLFDAYPHVKAWWTDLLARPSVQKVAALMKP",1.4 ± 0.3 absorbance change at 340 nm.mg^−1,6.3 ± 0.9,"2,519 nkat.mg^−1",0.053 ± 0.004,0.093 ± 0.002,0.014 ± 0.006,9.0 ± 0.5
"WIC 1: recombinant type I wheat GST, SEQ ID No. 3, amino acid SEQ ID No. 4 (protein, Triticum aestivum L.) MAAPAVKVYGWAMSPFVARALLCLEEAGVEYELVPMSREAGDHRQPDFLARNPFGQVPVLEDGDLTIFESRAVARHVLRKHKPELLGSGSPESAAMVDVWLEVEAHQHQTPAGTIVMQCILTPFLGCQRDQAAIDENAAKLTNLFDVYEARLSASRYLAGEAVSLADLSHFPFMRYFMDTEYASLVEERPHVKAWWEEFKASPAAKRVTEFMPPNFGFGKKAEK",18.6 ± 0.5 absorbance change at 340 nm.mg^−1,7.1 ± 0.7,406.5 nkat.mg^−1,0.315 ± 0.003,0.050 ± 0.010,0.136 ± 0.011,18.0 ± 3.75
